According to publication PMC11253605:

Molecular target: T1, IFIT2 (GST-Ifit2, wild type) (Mus musculus, UniProt Q64112 1-472)
T1 sequence: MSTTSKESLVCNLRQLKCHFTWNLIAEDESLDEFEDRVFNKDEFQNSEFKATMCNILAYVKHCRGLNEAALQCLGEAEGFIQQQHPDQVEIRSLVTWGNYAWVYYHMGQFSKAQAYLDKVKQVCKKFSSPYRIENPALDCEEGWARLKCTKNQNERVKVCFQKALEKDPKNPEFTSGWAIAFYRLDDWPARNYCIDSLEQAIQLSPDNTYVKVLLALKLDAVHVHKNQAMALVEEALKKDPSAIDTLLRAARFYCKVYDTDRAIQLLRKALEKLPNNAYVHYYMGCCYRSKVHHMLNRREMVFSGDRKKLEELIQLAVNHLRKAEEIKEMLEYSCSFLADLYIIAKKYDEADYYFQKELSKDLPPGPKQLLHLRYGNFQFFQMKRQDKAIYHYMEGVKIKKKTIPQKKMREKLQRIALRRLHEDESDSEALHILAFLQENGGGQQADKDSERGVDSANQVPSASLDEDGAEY
Assay: EMSA; 250 nM protein; at least two complexes; EMSA: 10 fmol labeled RNA in 10 uL, 250 nM protein, 50 mM Tris pH 8, 90 mM NaCl, 1 mM MgCl2, 9% glycerol, 0.05% Triton X-100, 30 min on ice; 6% native PAGE at 4 C
Details: protein: recombinant; tags: N-terminal GST (pGEX-6P-3); chain copies: 2; label: 5'-32P (T4 PNK); single strand

AUUAAUUUAUAAUUUAAAUUAUUUUCUACUUU (ssRNA) [32-nt AU-rich ssRNA]
binding result: binds
